# From publication PMC6265900
# pKi: −log10 of the molar value.
# Assays:
# factor XIIa = assay: enzyme inhibition with chromogenic substrate (Dixon plot); enzyme (FXIIa 10 nM, plasma kallikrein 80 nM, trypsin 800 nM, elastase 400 nM) incubated with 0.5, 1 and 2 uM native poecistasin in 60 uL of 50 mM Tris buffer pH 7.4 for 5 min, then 0.2 mM chromogenic substrate; absorbance at 405 nm for 10 min; Ki from Dixon plot
# plasma kallikrein = assay: as above
substance,measurement,setting,value
native poecistasin (natural protein),pKi,factor XIIa,8.03
same,pKi,plasma kallikrein,7.28
